As a reminder, the Kd is the concentration at which binding is half-saturated. The low end stands for higher affinity, the high end for lower affinity. Broadly, the koff is a measure of how fast the partners let go of each other. Higher therefore signals fast dissociation. In general, kon refers to the rate constant with which the complex forms.

In assay [1] the target is H6-Smt3-Int^C(N125A)-CysTag(Alexa647)-Trx-H6. The experiment in a line: MST.

Substance MBP-Int^N(C1A)-H6 (domain or fragment) yielded a Kd in assay [1] of 22.4 nM.

In the assay with H6-Int^N(C1A)-mCherry, “SBP-Int^C(N125A)-eGFP (domain or fragment)” gave a Kd of 9.2 nM, a koff of 0.00082 s⁻¹ and a kon of 85000 M⁻¹ s⁻¹.

Source of the values: paper PMC7693240.
